{"source": "patent US20220275100A1", "about": "(JIANGSU HENGRUI MEDICINE, published 2022)", "binders": {"B1": {"name": "h009-07 (antibody, human IgG1, kappa)", "heavy": "not shown", "light": "EIVLTQSPATLSLSPGERATLSCRASQSIYTNLHWYQQKPGQSPRLLIKYASQSISGIPARFSGSGSGTDFTLTISSLEPEDFAVYYCQQSNSWPLTFGGGTKVEIKRTVAAPSVFIFPPSDEQLKSGTASVVCLLNNFYPREAKVQWKVDNALQSGNSQESVTEQDSKDSTYSLSSTLTLSKADYEKHKVYACEVTHQGLSSPVTKSFNRGEC", "notes": "Humanized, human IgG1 / kappa; h009 VH2 + h009 VL2"}, "B2": {"name": "h009-11 (antibody, human IgG1, kappa, V domains shown)", "VH": "EVQLVQSGAEVKKPGASVKVSCKASGYTFTDYNLNWVRQAPGQRLEWMGVINPKYDAINYNQKFKDRVTITRDTSASTAYMELSSLRSEDTAVYYCAREGWGKALDYWGQGTLVTVSS", "VL": "EFVLTQSPATLSLSPGERATLSCRASQSIYTNLHWYQQKPGQSPRLLIKYASQSISGIPARFSGSGSGTDFTLTISSLEPEDFAVYFCQQSNSWPLTFGGGTKVEIKR"}, "B3": {"name": "h009-14 (antibody, human IgG1, kappa, V domains shown)", "VH": "EFQLVQSGAEVKKPGASVKVSCKASGYTFTDYNLNWVKQAPGQSLEWMGVINPKYDAINYNQKFKDKVTLTVDQSASTAYMELSSLRSEDTAVYYCAREGWGKALDYWGQGTLVTVSS", "VL": "EFVLTQSPATLSLSPGERATLSCRASQSIYTNLHWYQQKPGQSPRLLIKYASQSISGIPARFSGSGSGTDFTLTISSLEPEDFAVYFCQQSNSWPLTFGGGTKVEIKR"}, "B4": {"name": "h009-13 (antibody, human IgG1, kappa, V domains shown)", "VH": "EFQLVQSGAEVKKPGASVKVSCKASGYTFTDYNLNWVRQAPGQSLEWIGVINPKYDAINYNQKFKDRATITVDTSASTAYMELSSLRSEDTAVYYCAREGWGKALDYWGQGTLVTVSS", "VL": "EFVLTQSPATLSLSPGERATLSCRASQSIYTNLHWYQQKPGQSPRLLIKYASQSISGIPARFSGSGSGTDFTLTISSLEPEDFAVYFCQQSNSWPLTFGGGTKVEIKR"}, "B5": {"name": "h009-12 (antibody, human IgG1, kappa, V domains shown)", "VH": "EFQLVQSGAEVKKPGASVKVSCKASGYTFTDYNLNWVRQAPGQSLEWMGVINPKYDAINYNQKFKDRVTITVDTSASTAYMELSSLRSEDTAVYYCAREGWGKALDYWGQGTLVTVSS", "VL": "EFVLTQSPATLSLSPGERATLSCRASQSIYTNLHWYQQKPGQSPRLLIKYASQSISGIPARFSGSGSGTDFTLTISSLEPEDFAVYFCQQSNSWPLTFGGGTKVEIKR"}, "B6": {"name": "h009-09 (antibody, human IgG1, kappa, V domains shown)", "VH": "EFQLVQSGAEVKKPGASVKVSCKASGYTFTDYNLNWVKQAPGQSLEWMGVINPKYDAINYNQKFKDKVTLTVDQSASTAYMELSSLRSEDTAVYYCAREGWGKALDYWGQGTLVTVSS", "VL": "EIVLTQSPATLSLSPGERATLSCRASQSIYTNLHWYQQKPGQSPRLLIKYASQSISGIPARFSGSGSGTDFTLTISSLEPEDFAVYYCQQSNSWPLTFGGGTKVEIKR"}, "B7": {"name": "h009-08 (antibody, human IgG1, kappa, V domains shown)", "VH": "EFQLVQSGAEVKKPGASVKVSCKASGYTFTDYNLNWVRQAPGQSLEWIGVINPKYDAINYNQKFKDRATITVDTSASTAYMELSSLRSEDTAVYYCAREGWGKALDYWGQGTLVTVSS", "VL": "EIVLTQSPATLSLSPGERATLSCRASQSIYTNLHWYQQKPGQSPRLLIKYASQSISGIPARFSGSGSGTDFTLTISSLEPEDFAVYYCQQSNSWPLTFGGGTKVEIKR"}, "B8": {"name": "h009-10 (antibody, human IgG1, kappa, V domains shown)", "VH": "EFQLVQSGAEVKKPGASVKVSCKASGYTFTDYNLNWVKQAPGQSLEWIGVINPKYDAINYNQKFKDKATLTVDQSASTAYMELSSLRSEDTAVYYCAREGWGKALDYWGQGTLVTVSS", "VL": "EIVLTQSPATLSLSPGERATLSCRASQSIYTNLHWYQQKPGQSPRLLIKYASQSISGIPARFSGSGSGTDFTLTISSLEPEDFAVYYCQQSNSWPLTFGGGTKVEIKR"}}, "target": "T1, Fusion protein of CD38 extracellular domain with His tag: CD38-ECD-His (human, UniProt P28907 43-300)", "T1 construct": "unlabelled analyte in Biacore; also called human CD38-ECD-His; Human CD38-His", "assay": "SPR (Biacore), antibody captured by anti-human Fc, CD38-ECD-His as analyte;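 also: human CD38-ECD-His flowed over the captured antibody with the signal tracked in real time, and association and dissociation curves were fitted to derive the affinity values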", "description": "Then the human CD38-ECD-His antigen passed through the surface of the chip, and a real-time detection for the reaction signal was performed with Biacore instrument. The resulting binding and dissociation curves were fitted to calculate the affinity values. After the dissociation of each cycle was completed in the experiment, the biochip was washed and regenerated with the regeneration solution supplied in the Human Fc Capture Kit (GE).", "data": [{"binder": "B1", "values": [{"measurement": "Kd", "result": 0.995, "unit": "nM"}, {"measurement": "koff", "result": 0.0021, "unit": "s⁻¹"}, {"measurement": "kon", "result": "2.11e+06", "unit": "M⁻¹ s⁻¹"}]}, {"binder": "B2", "values": [{"measurement": "Kd", "result": 5.17, "unit": "nM"}, {"measurement": "koff", "result": 0.0121, "unit": "s⁻¹"}, {"measurement": "kon", "result": "2.33e+06", "unit": "M⁻¹ s⁻¹"}]}, {"binder": "B3", "values": [{"measurement": "Kd", "result": 0.815, "unit": "nM"}, {"measurement": "koff", "result": 0.00185, "unit": "s⁻¹"}, {"measurement": "kon", "result": "2.27e+06", "unit": "M⁻¹ s⁻¹"}]}, {"binder": "B4", "values": [{"measurement": "Kd", "result": 0.465, "unit": "nM"}, {"measurement": "koff", "result": 0.00106, "unit": "s⁻¹"}, {"measurement": "kon", "result": "2.28e+06", "unit": "M⁻¹ s⁻¹"}]}, {"binder": "B5", "values": [{"measurement": "Kd", "result": 0.409, "unit": "nM"}, {"measurement": "koff", "result": 0.000917, "unit": "s⁻¹"}, {"measurement": "kon", "result": "2.24e+06", "unit": "M⁻¹ s⁻¹"}]}, {"binder": "B6", "values": [{"measurement": "Kd", "result": 2.14, "unit": "nM"}, {"measurement": "koff", "result": 0.00489, "unit": "s⁻¹"}, {"measurement": "kon", "result": "2.29e+06", "unit": "M⁻¹ s⁻¹"}]}, {"binder": "B7", "values": [{"measurement": "Kd", "result": 1.18, "unit": "nM"}, {"measurement": "koff", "result": 0.00223, "unit": "s⁻¹"}, {"measurement": "kon", "result": "1.89e+06", "unit": "M⁻¹ s⁻¹"}]}, {"binder": "B8", "values": [{"measurement": "Kd", "result": 2.12, "unit": "nM"}, {"measurement": "koff", "result": 0.00433, "unit": "s⁻¹"}, {"measurement": "kon", "result": "2.04e+06", "unit": "M⁻¹ s⁻¹"}]}]}
